Experimental data as given in US20250326842A1 (BEIGENE SWITZERLAND, published 2025).
Where two headings read alike, the source gives them in different places.

Columns and labels:
[1] = target: T1, human PVRIG expressed on cells (human, UniProt Q6DKI7 41-326); experiment: flow cytometry on Jurkat cells expressing human PVRIG, anti-hFc-AF647 detection
T1 construct: Jurkat cells engineered to express human PVRIG; also called hPVRIG-Jurkat; native human PVRIG
T1 sequence: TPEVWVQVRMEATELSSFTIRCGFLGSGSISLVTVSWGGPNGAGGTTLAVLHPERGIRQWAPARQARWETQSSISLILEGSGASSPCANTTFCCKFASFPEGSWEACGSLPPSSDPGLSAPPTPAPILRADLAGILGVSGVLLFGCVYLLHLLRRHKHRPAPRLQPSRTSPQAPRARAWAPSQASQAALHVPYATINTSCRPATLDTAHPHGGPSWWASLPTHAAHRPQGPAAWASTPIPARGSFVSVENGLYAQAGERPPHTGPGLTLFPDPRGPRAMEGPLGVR
Protocol: To evaluate the binding activity of anti-PVRIG antibodies to native PVRIG on living cells, Jurkat cells were engineered to express human PVRIG. […] EC50 values for dose dependent binding to human native PVRIG were determined by fitting the dose response data to the four-parameter logistic model with GraphPad Prism™.

[2] = target: T2, hPVRIG-ECD-his (human, UniProt Q6DKI7 41-171); experiment: blocking ELISA: hPVRIG-His coated, antibody mixed with PVRL2-biotin at 1 ug/mL; % inhibition of PVRL2 binding
T2 construct: Acrobiosystems PVG-H52H4; also called hPVRIG-His; human PVRIG-His; not shown: His tag
T2 sequence: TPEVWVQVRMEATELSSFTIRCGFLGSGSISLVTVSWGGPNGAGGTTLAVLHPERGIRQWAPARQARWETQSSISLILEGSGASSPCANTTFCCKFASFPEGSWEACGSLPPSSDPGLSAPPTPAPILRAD

[3] = target: T3, human PVRIG recombinant protein (human, UniProt Q6DKI7 41-171); experiment: SPR, antibody captured via anti-human Fc, human PVRIG analyte
T3 construct: also called human PVRIG protein; recombinant human antigen PVRIG
T3 sequence: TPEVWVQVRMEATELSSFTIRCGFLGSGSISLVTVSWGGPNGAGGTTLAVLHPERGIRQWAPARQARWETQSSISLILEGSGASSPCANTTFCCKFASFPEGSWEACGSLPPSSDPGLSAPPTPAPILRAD
Source text: For affinity determination, antibodies were captured by anti-human Fc antibodies, and used in the affinity determination based on surface plasmon resonance (SPR) technology.

[4] = target: T4, Cyno PVRIG expressed on HEK293 cells (cynomolgus monkey); experiment: flow cytometry on 293T cells expressing cyno PVRIG, anti-hFc-AF647 detection
T4 construct: also called native Cyno PVRIG
T4 chain: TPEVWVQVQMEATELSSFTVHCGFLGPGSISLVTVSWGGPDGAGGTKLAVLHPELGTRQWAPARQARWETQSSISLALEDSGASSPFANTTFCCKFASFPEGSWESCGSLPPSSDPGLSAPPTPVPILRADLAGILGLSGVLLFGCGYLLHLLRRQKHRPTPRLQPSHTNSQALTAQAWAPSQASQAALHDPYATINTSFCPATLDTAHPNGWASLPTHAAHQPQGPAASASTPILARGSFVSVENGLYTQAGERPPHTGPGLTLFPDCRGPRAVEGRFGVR
Protocol: (§1) To evaluate the binding activity of anti-PVRIG antibodies to native Cyno PVRIG on living cells. HEK293 cells were engineered to express Cyno PVRIG. HEK293 expressing PVRIG cells were seeded in 96 well plates and were incubated with a serial dilution of anti-PVRIG antibodies. […] EC50 values for dose dependent binding to Cyno native PVRIG were determined by fitting the dose response data to the four-parameter logistic model with GraphPad Prism™.

[5] = target: T5, human PVRL2 overexpressed on Farage cells (human, UniProt Q92692 32-538); experiment: flow cytometry: 300 ng/ml hPVRIG-mIgG2a on Farage-hPVRL2 cells, PE anti-mouse IgG2a [panel A]
T5 construct: also called Farage-hPVRL2 cells; surface PVRL2
T5 sequence: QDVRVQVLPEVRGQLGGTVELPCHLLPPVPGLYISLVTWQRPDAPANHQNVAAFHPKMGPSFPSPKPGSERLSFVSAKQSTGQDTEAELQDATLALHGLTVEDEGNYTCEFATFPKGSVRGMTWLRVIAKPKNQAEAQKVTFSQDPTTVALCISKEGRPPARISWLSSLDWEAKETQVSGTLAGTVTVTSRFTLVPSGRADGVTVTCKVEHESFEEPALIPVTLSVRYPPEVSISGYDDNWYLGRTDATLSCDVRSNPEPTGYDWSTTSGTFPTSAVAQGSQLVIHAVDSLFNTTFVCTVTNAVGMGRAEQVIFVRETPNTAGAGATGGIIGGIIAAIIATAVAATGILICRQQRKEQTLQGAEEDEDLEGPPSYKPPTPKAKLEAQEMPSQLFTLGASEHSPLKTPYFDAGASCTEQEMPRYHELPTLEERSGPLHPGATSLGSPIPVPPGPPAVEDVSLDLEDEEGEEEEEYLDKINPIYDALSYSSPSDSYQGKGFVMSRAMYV

[6] = target: T1, human PVRIG expressed on cells; experiment: flow cytometry on Jurkat cells expressing human PVRIG, anti-hFc-AF647 detection [panel A]
Protocol: as §1, with “native” for “native Cyno”, “cells, Jurkat” for “cells. HEK293”, “human” for “Cyno”, “Jurkat cells” for “HEK293”, “PVRIG” for “PVRIG cells”, “serially diluted” for “a serial dilution of”

[7] = target: T1, human PVRIG expressed on cells; experiment: flow cytometry on Jurkat cells expressing human PVRIG, anti-hFc-647 detection [panel B]
Protocol: as §1, with “native” for “native Cyno”, “cells, Jurkat” for “cells. HEK293”, “human” for “Cyno”, “Jurkat cells” for “HEK293”, “PVRIG” for “PVRIG cells”, “serially diluted” for “a serial dilution of”

[8] = target: T2, hPVRIG-ECD-his; experiment: blocking ELISA: hPVRIG-His coated, antibody mixed with PVRL2-biotin at 1 ug/mL; % inhibition of PVRL2 binding [panel A]
[9] = target: T4, Cyno PVRIG expressed on HEK293 cells; experiment: flow cytometry on 293T cells expressing cyno PVRIG, anti-hFc-AF647 detection [panel A]
Protocol: as §1, with “cells transfected with Cyno” for “expressing”, “PVRIG” for “PVRIG cells”

[10] = target: T4, Cyno PVRIG expressed on HEK293 cells; experiment: flow cytometry on HEK293 cells expressing cyno PVRIG, anti-hFc-647 detection [panel B]
Protocol: as §1, with “cells transfected with Cyno” for “expressing”, “PVRIG” for “PVRIG cells”

[11] = target: T3, human PVRIG recombinant protein; experiment: SPR, antibody captured via anti-human Fc, human PVRIG analyte; remark: listed apart in the source
Source text: For affinity determination, anti-PVRIG antibodies were captured by anti-human Fc antibodies, and used in the affinity assay based on surface plasmon resonance (SPR) technology.

[12] = target: T2, hPVRIG-ECD-his; experiment: competition ELISA, antibody against PVRL2 on coated human PVRIG
[13] = target: T3, human PVRIG recombinant protein; experiment: ELISA, chimeric antibody on recombinant human PVRIG
[14] = target: T1, human PVRIG expressed on cells; experiment: FACS on human PVRIG-expressing cells
[15] = target: T3, human PVRIG recombinant protein; experiment: SPR, antibody captured via anti-human Fc, human PVRIG analyte; remark: listed apart in the source
Protocol: Chimeric anti-PVRIG antibodies were generated in human IgG1 format and characterized for binding kinetics by surface plasmon resonance (SPR) assays using BIAcore™ T-200 (GE Life Sciences). […] Then a serial dilution of human or Cyno PVRIG protein was flowed over the chip surface and changes in surface plasmon resonance signals were analyzed to calculate the association rates (kₒₙ) and dissociation rates (koff) by using the one-to-one Langmuir binding model (BIA Evaluation Software, GE Life Sciences). The equilibrium dissociation constant (KD) was calculated as the ratio koff/kₒₙ.

B1: BGA861 (antibody, V domains shown)
VH: EVQLVESGGGLVKPGGSLRLSCAASGFTFSSYGISWVRQAPGKGLEWVSEISSGGTYTYYPDTVTGRFTISRDNAKNTLYLQMSSLRAEDTAVYYCARGDPFGYWGQGTLVTVSS
VL: DIQMTQSPSSLSASVGDRVTITCKASQDVMTAVAWYQQKPGKAPKLLIYSTSYRFTGVPSRFSGSGSGTDFTLTISSLQPEDFATYYCQQHYSTPRTFGGGTKVEIK
notes: Humanized BGA86
B1 was tested, and the “EC50 (read off the curve)” value [1] was about 0.02 µg/mL, the “IC50 (read off the curve)” value [2] was about 0.2 µg/mL and the Kd [3] was 0.645 nM. The koff [3] was 0.000954 s⁻¹, the kon [3] was 1.48e+06 M⁻¹ s⁻¹ and the “EC50 (read off the curve)” value [4] was about 0.04 µg/mL.

B2: BGA862 (antibody, V domains shown)
VH: EVQLVESGGGLVKPGGSLRLSCAASGFTFSSYGLSWVRQAPGKGLEWVSEISSGGTYTYYPDTVTGRFTISRDNAKNTLYLQMSSLRAEDTAVYYCARGDPFGYWGQGTLVTVSS
VL: DIQMTQSPSSLSASVGDRVTITCKASQDVMTAVAWYQQKPGKAPKLLIYSTSYRFTGVPSRFSGSGSGTDFTLTISSLQPEDFATYYCQQHYSTPRTFGGGTKVEIK
notes: Humanized BGA86
B2 was tested, and the “EC50 (read off the curve)” value [1] was about 0.01 µg/mL, the “IC50 (read off the curve)” value [2] was about 0.1 µg/mL and the Kd [3] was 0.898 nM. The koff [3] was 0.00216 s⁻¹, the kon [3] was 2.41e+06 M⁻¹ s⁻¹ and the “EC50 (read off the curve)” value [4] was about 0.01 µg/mL.

B3: human PVRIG-mIgG2a (Fc fusion)
chain: TPEVWVQVRMEATELSSFTIRCGFLGSGSISLVTVSWGGPNGAGGTTLAVLHPERGIRQWAPARQARWETQSSISLILEGSGASSPCANTTFCCKFASFPEGSWEACGSLPPSSDPGLSAPPTPAPILRAD
notes: also called hPVRIG-mIgG2a; hPVRIG; not shown: mouse IgG2a Fc
B3: binds [5].

B4: BGA381 (antibody, V domains shown)
VH: EVQLVQSGAEVKKPGASVKVSCKASGYTFTDYWIYWVRQAPGQGLEWMGTIDTSDHKTSYNQKFRGRVTMTRDTSTSTVYMELSSLRSEDTAVYYCARDFIITVNYPVVDYWGQGTLVTVSS
VL: QIVLTQSPATLSLSPGERATLSCSAGSSVNYMHWFQQKPGQAPRLLIYSTSNLASGVPARFSGSGSGTDYTLTISSLEPEDFAVYYCQQRSSLPFTFGQGTKLEIK
notes: Humanized BGA38; also called BGA381-WT; BGA381/IgG1 WT
B4 was tested, and the “EC50 (read off the curve)” value [6] was about 0.03 µg/mL, the “EC50 (read off the curve)” value [7] was about 0.03 µg/mL and the “IC50 (read off the curve)” value [8] was about 0.4 µg/mL. For the same binder, the “EC50 (read off the curve)” value [9] was about 0.06 µg/mL, the “EC50 (read off the curve)” value [10] was about 0.06 µg/mL and the Kd [11] was 0.0707 nM. It also gave a koff [11] of 0.000311 s⁻¹ and a kon [11] of 4.4e+06 M⁻¹ s⁻¹.

B5: BGA382 (antibody, V domains shown)
VH: EVQLVQSGAEVKKPGASVKVSCKASGYTFTDYWIYWVRQAPGQGLEWMGTIDTSDHKTSYNQKFRGRVTMTRDTSTSTVYMELSSLRSEDTAVYYCARDFIITVNYPVVDYWGQGTLVTVSS
VL: QNVLTQSPATLSLSPGERATLSCSAGSSVNYLHWFQQKPGQAPRLLIYSTSNLASGVPARFSGSGSGTDYTLTISSLEPEDFAVYYCQQRSSLPFTFGQGTKLEIK
notes: Humanized BGA38
B5 was tested, and the “EC50 (read off the curve)” value [6] was about 0.03 µg/mL, the “IC50 (read off the curve)” value [8] was about 0.4 µg/mL and the “EC50 (read off the curve)” value [9] was about 0.03 µg/mL. It also gave a Kd [11] of 0.0646 nM, a koff [11] of 0.000211 s⁻¹ and a kon [11] of 3.26e+06 M⁻¹ s⁻¹.

B6: BGA86 (antibody, human IgG1, V domains shown)
VH: EVQLQESGGGSVKPGGSLQLSCAASGFTFSSYGMSWIRQSPEKKLEWVAEISSGGTYTYYPDTVTGRFTISRDNAKNTLYLEMSSLRSEDTAMYYCARGDPFGYWGQGTLVTVSA
VL: DVVMTQSHKFVSTSVGGRVSITCKASQDVMTAVAWYQQKPGQSPKLLIYSTSYRFTGVPDRFTGSGSGTDFTLTINGVQAEDLAVYSCQQHYSTPRTFGGGTKLEIK
notes: also called BGA86-WT
For B6, the “EC50 (read off the curve)” value [1] was about 0.02 µg/mL, the IC50 [12] was 0.885 nM and the “PVRIG/PVRL2 blocking Emax (% Inhibition)” value [12] was 97.2%. The EC50 [13] was 0.069 nM, the EC50 [14] was 0.038 nM and the “binding Emax (MFI)” value [14] was 1030 MFI. For the same binder, the “IC50 (read off the curve)” value [2] was about 0.1 µg/mL, the Kd [15] was 0.161 nM and the koff [15] was 0.00215 s⁻¹. The kon [15] was 1.34e+07 M⁻¹ s⁻¹, the Kd [3] was 0.304 nM and the koff [3] was 0.000772 s⁻¹. For the same binder, the kon [3] was 2.54e+06 M⁻¹ s⁻¹ and the “EC50 (read off the curve)” value [4] was about 0.01 µg/mL.

B7: BGA38 (antibody, V domains shown)
VH: EVQLQESGAEHVMPGASVKMSCKAAGYTFTDYWMYWVKQRPGQGLEWIGTIDTSDHKTSYNQKFRGKATLTVDESSSTAYMQLSSLTSEDSAVYYCARDFIITVNYPVVDYWGQGTSVTVSS
VL: QNVLTQSPAIMSASPGEKVTITCSAGSSVNYMHWFQQKPGTSPKLWIYSTSNLASGVPARFSGSGSGTSYSLTISRMEAEDAATYYCQQRSSLPFTFGSGTKLEIK
notes: also called BGA38-WT
With B7 the IC50 [12] was 1.5 nM, the “PVRIG/PVRL2 blocking Emax (% Inhibition)” value [12] was 60% and the EC50 [13] was 0.524 nM. The EC50 [14] was 0.059 nM, the “binding Emax (MFI)” value [14] was 1040 MFI and the “EC50 (read off the curve)” value [6] was about 0.03 µg/mL. It also gave a Kd [15] of 0.112 nM, a koff [15] of 0.00017 s⁻¹ and a kon [15] of 1.52e+06 M⁻¹ s⁻¹. For the same binder, the “IC50 (read off the curve)” value [8] was about 0.6 µg/mL, the “EC50 (read off the curve)” value [9] was about 0.05 µg/mL and the Kd [11] was 0.045 nM. The koff [11] was 0.000175 s⁻¹ and the kon [11] was 3.89e+06 M⁻¹ s⁻¹.
